This note sets out measurements from article PMC5342420, “CD109 is identified as a potential nasopharyngeal carcinoma biomarker using aptamer selected by cell-SELEX”.

The target in data set [1] is T1, CD109 (endogenous, 5-8F cells) (UniProt Q6YHK3).
T1 sequence: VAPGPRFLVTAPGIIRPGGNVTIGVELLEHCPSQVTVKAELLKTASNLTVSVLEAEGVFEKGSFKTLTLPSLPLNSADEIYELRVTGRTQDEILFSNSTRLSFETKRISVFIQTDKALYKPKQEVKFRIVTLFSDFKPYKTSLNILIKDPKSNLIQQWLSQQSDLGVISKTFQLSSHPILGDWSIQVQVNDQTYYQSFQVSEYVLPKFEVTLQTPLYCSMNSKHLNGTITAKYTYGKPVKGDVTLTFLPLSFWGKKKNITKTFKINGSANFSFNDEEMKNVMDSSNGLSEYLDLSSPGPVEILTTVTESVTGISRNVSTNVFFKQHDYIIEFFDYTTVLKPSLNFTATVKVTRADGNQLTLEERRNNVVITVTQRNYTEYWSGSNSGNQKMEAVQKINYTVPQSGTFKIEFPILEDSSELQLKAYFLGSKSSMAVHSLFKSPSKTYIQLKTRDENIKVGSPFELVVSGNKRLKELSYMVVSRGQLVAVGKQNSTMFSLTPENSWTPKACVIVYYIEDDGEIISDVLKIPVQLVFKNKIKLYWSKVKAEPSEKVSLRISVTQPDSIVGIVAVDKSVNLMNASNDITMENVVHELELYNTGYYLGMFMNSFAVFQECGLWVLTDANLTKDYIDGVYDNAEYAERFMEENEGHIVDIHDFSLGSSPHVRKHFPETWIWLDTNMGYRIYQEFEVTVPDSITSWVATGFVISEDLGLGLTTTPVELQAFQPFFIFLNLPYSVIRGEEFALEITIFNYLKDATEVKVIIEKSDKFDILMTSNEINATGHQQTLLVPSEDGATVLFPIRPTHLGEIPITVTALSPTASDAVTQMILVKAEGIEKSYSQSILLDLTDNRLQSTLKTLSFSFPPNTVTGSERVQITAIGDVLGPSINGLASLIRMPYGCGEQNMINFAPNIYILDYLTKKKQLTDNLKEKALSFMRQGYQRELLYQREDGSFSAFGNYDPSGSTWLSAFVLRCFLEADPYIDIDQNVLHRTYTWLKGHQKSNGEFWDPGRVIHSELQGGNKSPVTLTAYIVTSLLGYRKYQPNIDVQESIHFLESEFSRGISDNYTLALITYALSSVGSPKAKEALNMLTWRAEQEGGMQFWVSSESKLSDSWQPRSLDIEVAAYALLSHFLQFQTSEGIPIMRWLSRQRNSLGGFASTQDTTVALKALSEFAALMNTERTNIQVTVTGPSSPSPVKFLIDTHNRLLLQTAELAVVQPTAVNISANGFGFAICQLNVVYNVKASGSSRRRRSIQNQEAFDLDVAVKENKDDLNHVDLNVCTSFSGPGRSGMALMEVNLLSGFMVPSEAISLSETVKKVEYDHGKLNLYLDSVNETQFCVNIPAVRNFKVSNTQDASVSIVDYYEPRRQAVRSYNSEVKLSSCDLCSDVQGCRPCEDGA
Nature of the data set: flow cytometry. Conditions: whole 5-8F cells, on ice, 10% FBS, library background subtracted, Cells: D-PBS (Ca/Mg-free) + 4.5 g/L glucose, 5 mM MgCl2, 0.1 mg/mL yeast tRNA, 1 mg/mL BSA, on ice 0.5 h, EMSA: binding buffer, 4 C, 5% native PAGE in …. A general note: Flow cytometry measures light scatter and fluorescence of single cells or particles in a stream.

Data set [2] has as its target CD109 (recombinant) (Homo sapiens, UniProt Q6YHK3 22-1420). Put plainly: EMSA; 4 C; Cells: D-PBS (Ca/Mg-free) + 4.5 g/L glucose, 5 mM MgCl2, 0.1 mg/mL yeast tRNA, 1 mg/mL BSA, 10% FBS, on ice 0.5 h; EMSA: binding buffer, 4 C, 5% native PAGE in. The conditions noted are these: protein: commercial; label: FAM. (A gel shift assay detects complexes by their altered migration in electrophoresis.)

Regarding “ATCCAGAGTGACGCAGCATCTGAGAATAGTGGTTTGCTGTATGGTGGGCGTTGAAAGAGGGGTGGACACGGTGGCTTAGT [S3 (FITC-labeled)]”, the Kd (commonly the equilibrium constant for the complex coming apart) in data set [1] stood at 11.9 nM.

B1: S3 (FAM-labeled) (ssDNA)
DNA: ATCCAGAGTGACGCAGCATCTGAGAATAGTGGTTTGCTGTATGGTGGGCGTTGAAAGAGGGGTGGACACGGTGGCTTAGT
Consider B1, for which, in data set [2], the binding result was “binds”.
